This passage reports binding results from paper PMC6090078.

This series concerns T1, AcrR (His6-AcrR) (Acinetobacter nosocomialis ATCC 17903 (NCTC 8102)?), ORF:b0b0015b.
T1 sequence: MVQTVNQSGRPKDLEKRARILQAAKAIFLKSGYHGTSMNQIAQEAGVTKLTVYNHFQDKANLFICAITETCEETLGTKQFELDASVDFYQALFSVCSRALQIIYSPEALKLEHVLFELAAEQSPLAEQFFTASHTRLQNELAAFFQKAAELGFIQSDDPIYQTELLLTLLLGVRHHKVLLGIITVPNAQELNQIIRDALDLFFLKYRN
Nature of the series: EMSA. For orientation: A gel shift assay detects complexes by their altered migration in electrophoresis.

For the sequence “AAAACCCTCTAATAAAAGATTAAAAAAATAAATATTTATAAGTTTTTTTTAATTAATGTACCCATGGGTATATTAATTAAAAAACAAACAAACTATGATGCAAGCATATTGTGCCTTAAAAAATCAGTTTGAATAAGAGCGATAAGAT (double strand) [PacrA/acrR promoter fragment, 148 bp]”, the binding result is given as “binds”.
